Key:
Assay in all cases: cell-based or functional assay
[1] = target: Env of HIV isolate 0330.v4.c3 (clade A) (HIV)
[2] = target: Env of HIV isolate 3168.v4.c10 (clade C) (HIV)
[3] = target: Env of HIV isolate 3301.v1.c24 (clade AC) (HIV)
[4] = target: Env of HIV isolate 3589.v1.c4 (clade AC) (HIV)
[5] = target: Env of HIV isolate 3817.v2.c59 (clade CD) (HIV)
[6] = target: Env of HIV isolate 5768.04 (clade B) (HIV)
[7] = target: Env of HIV isolate 6095.v1.c10 (clade ACD) (HIV)
[8] = target: Env of HIV isolate 6405.v4.c34 (clade D) (HIV)
[9] = target: Env of HIV isolate 6545.v4.c1 (clade AC) (HIV)
[10] = target: Env of HIV isolate 6644.v2.c33 (clade C) (HIV)
[11] = target: Env of HIV isolate 7165.18 (clade B) (HIV)
[12] = target: Env of HIV isolate BG505.W6M.C2 (clade A) (HIV)
[13] = target: Env of HIV isolate BJOX009000.02.4 (clade AE) (HIV)
[14] = target: Env of HIV isolate BX08.16 (clade B) (HIV)
[15] = target: Env of HIV isolate CAAN.A2 (clade B) (HIV)
[16] = target: Env of HIV isolate CNE30 (clade C in Table 7) (HIV)
[17] = target: Env of HIV isolate CNE40 (clade BC) (HIV)
[18] = target: Env of HIV isolate CNE7 (clade BC) (HIV)
[19] = target: Env of HIV isolate DJ263.8 (clade AG) (HIV)
[20] = target: Env of HIV isolate HO86.8 (clade B) (HIV)
[21] = target: Env of HIV isolate HT593.1 (clade B) (HIV)
[22] = target: Env of HIV isolate JRCSF.JB (clade B) (HIV)
[23] = target: Env of HIV isolate KER2008.12 (clade A) (HIV)
[24] = target: Env of HIV isolate KNH1209.18 (clade A) (HIV)
[25] = target: Env of HIV isolate MB201.A1 (clade A) (HIV)
[26] = target: Env of HIV isolate PVO.04 (clade B) (HIV)
[27] = target: Env of HIV isolate Q23.17 (clade A) (HIV)
[28] = target: Env of HIV isolate R1166.C1 (clade AE) (HIV)
[29] = target: Env of HIV isolate SC422.8 (clade B) (HIV)
[30] = target: Env of HIV isolate THRO.18 (clade B) (HIV)
[31] = target: Env of HIV isolate TRJO.58 (clade B) (HIV)
[32] = target: Env of HIV isolate ZM109.4 (clade C) (HIV)
[33] = target: Env of HIV isolate ZM135.10a (clade C) (HIV)
[34] = target: Env of HIV isolate ZM176.66 (clade C) (HIV)
[35] = target: Envelope protein of SVA.MLV (clade NA)
[36] = target: HIV Env of isolate 16936-2.21 (HIV)
[37] = target: HIV Env of isolate 247-23 (HIV)
[38] = target: HIV Env of isolate 288.38 (HIV)
[39] = target: HIV Env of isolate 3168.v4.c10 (HIV)
[40] = target: HIV Env of isolate 3337.v2.c6 (HIV)
[41] = target: HIV Env of isolate 426c (HIV)
[42] = target: HIV Env of isolate 6644.v2.c33 (HIV)
[43] = target: HIV Env of isolate 96ZM651.02 (HIV)
[44] = target: HIV Env of isolate CH119.10 (HIV)
[45] = target: HIV Env of isolate CH181.12 (HIV)
[46] = target: HIV Env of isolate DU151.02 (HIV)
[47] = target: HIV Env of isolate DU156.12 (HIV)
[48] = target: HIV Env of isolate DU422.01 (HIV)
[49] = target: HIV Env of isolate UG021.16 (HIV)
[50] = target: HIV Env of isolate ZM249.1 (HIV)

B1: ePGT121.15 (ePGT121.15.H6 VH and ePGT121.15.L1 VL) (antibody, V domains shown)
VH: QMQLQESGPGLVKPGETLSLTCSVSGASISSSYWSWLRETPGKGLEWIGYTHHSGDTNYAPSLKSRVHLGLHPSKNQVSLSLTSVTAADTAVYYCARTLHGRRIYGVVAFNEFFTYFYWEVWGKGTQVTVSS
VL: SDISVAPGETVRISCGGESIGSRAVQWYQHRAGQAPKLIIYNNQDRPPGIPERFSGSPDIDFGTTATLTITNVEAGDEATYYCHIWDSRRPTNWVFGGGTTLTVL
In the case of B1, the IC50, pseudovirus neutralization [1] is reported as 0.006 µg/mL, the IC50, pseudovirus neutralization [2] is reported as 0.026 µg/mL and the IC50, pseudovirus neutralization [3] is reported as 0.006 µg/mL. It also gave an IC50, pseudovirus neutralization [4] of 0.229 µg/mL, an IC50, pseudovirus neutralization [5] of 0.984 µg/mL and an IC50, pseudovirus neutralization [6] of 0.028 µg/mL. The IC50, pseudovirus neutralization [7] was 0.019 µg/mL, the IC50, pseudovirus neutralization [8] was 0.003 µg/mL and the IC50, pseudovirus neutralization [9] was over 50 µg/mL. It also gave an IC50, pseudovirus neutralization [10] of 0.003 µg/mL, an IC50, pseudovirus neutralization [11] of 0.003 µg/mL and an IC50, pseudovirus neutralization [12] of 0.066 µg/mL. The IC50, pseudovirus neutralization [13] was 0.183 µg/mL, the IC50, pseudovirus neutralization [14] was 0.004 µg/mL and the IC50, pseudovirus neutralization [15] was 0.005 µg/mL. For the same binder, the IC50, pseudovirus neutralization [16] was 0.008 µg/mL, the IC50, pseudovirus neutralization [17] was 0.028 µg/mL and the IC50, pseudovirus neutralization [18] was 0.005 µg/mL. For the same binder, the IC50, pseudovirus neutralization [19] was 0.013 µg/mL, the IC50, pseudovirus neutralization [20] was over 50 µg/mL and the IC50, pseudovirus neutralization [21] was 0.008 µg/mL. The IC50, pseudovirus neutralization [22] was 0.008 µg/mL, the IC50, pseudovirus neutralization [23] was 0.01 µg/mL and the IC50, pseudovirus neutralization [24] was 0.003 µg/mL. It also gave an IC50, pseudovirus neutralization [25] of 0.004 µg/mL, an IC50, pseudovirus neutralization [26] of 0.006 µg/mL and an IC50, pseudovirus neutralization [27] of 0.003 µg/mL. For the same binder, the IC50, pseudovirus neutralization [28] was over 50 µg/mL, the IC50, pseudovirus neutralization [29] was 0.011 µg/mL and the IC50, pseudovirus neutralization [30] was over 50 µg/mL. It also gave an IC50, pseudovirus neutralization [31] of 0.007 µg/mL, an IC50, pseudovirus neutralization [32] of 3.37 µg/mL and an IC50, pseudovirus neutralization [33] of 0.119 µg/mL. It also gave an IC50, pseudovirus neutralization [34] of 0.073 µg/mL, an IC50, pseudovirus neutralization [35] of over 50 µg/mL and an IC80, pseudovirus neutralization [36] of 0.007 µg/mL. It also gave an IC80, pseudovirus neutralization [37] of over 50 µg/mL, an IC80, pseudovirus neutralization [38] of 0.005 µg/mL and an IC80, pseudovirus neutralization [39] of 0.075 µg/mL. For the same binder, the IC80, pseudovirus neutralization [40] was 2.63 µg/mL, the IC80, pseudovirus neutralization [41] was 1.38 µg/mL and the IC80, pseudovirus neutralization [42] was 0.008 µg/mL. For the same binder, the IC80, pseudovirus neutralization [43] was 0.004 µg/mL, the IC80, pseudovirus neutralization [44] was 0.016 µg/mL and the IC80, pseudovirus neutralization [45] was 0.008 µg/mL. For the same binder, the IC80, pseudovirus neutralization [46] was 0.004 µg/mL, the IC80, pseudovirus neutralization [47] was 0.005 µg/mL and the IC80, pseudovirus neutralization [48] was 0.022 µg/mL. For the same binder, the IC80, pseudovirus neutralization [49] was 0.022 µg/mL and the IC80, pseudovirus neutralization [50] was 1.01 µg/mL.

Source: US20210292396A1
